Tests used:
HLA-B*08:01 = experiment: IEDB peptide-MHC binding, purified MHC/direct/fluorescence; filed as Kd, often an IC50 or EC50 that approximates it; ≥ and ≤ were set here for values at or beyond the usual limits of such assays; conditions: source organism: Lyssavirus rabies
HLA-B*58:01 = experiment: as above
HLA-B*48:01 = experiment: as above
HLA-B*57:01 = experiment: as above
HLA-B*27:05 = experiment: as above
HLA-B*18:01 = experiment: as above
HLA-A*69:01 [1] = experiment: as above; conditions: source organism: Lyssavirus rabies
HLA-A*02:01 [2] = experiment: as above; conditions: source organism: Lyssavirus rabies
HLA-B*07:02 = experiment: as above
HLA-A*26:03 [3] = experiment: as above; conditions: source organism: Lyssavirus rabies
HLA-A*03:01 = experiment: as above
HLA-B*73:01 = experiment: as above; conditions: source organism: Lyssavirus rabies
HLA-A*01:01 = experiment: as above
HLA-A*68:02 [4] = experiment: as above; conditions: source organism: Lyssavirus rabies
HLA-B*15:01 = experiment: as above
HLA-A*31:01 [5] = experiment: IEDB peptide-MHC binding, purified MHC/competitive/fluorescence; filed as Kd, often an IC50 or EC50 that approximates it; ≥ and ≤ were set here for values at or beyond the usual limits of such assays; conditions: source organism: Lyssavirus rabies
HLA-B*15:17 = experiment: as above
HLA-B*15:09 = experiment: as above; conditions: source organism: Lyssavirus rabies
HLA-A*11:01 [6] = experiment: as above; conditions: source organism: Lyssavirus rabies
HLA-A*02:06 = experiment: as above
HLA-A*30:01 = experiment: as above; conditions: source organism: Lyssavirus rabies
HLA-A*31:01 [7] = experiment: IEDB peptide-MHC binding, purified MHC/direct/fluorescence; filed as Kd, often an IC50 or EC50 that approximates it; ≥ and ≤ were set here for values at or beyond the usual limits of such assays; conditions: source organism: Marburg virus - Musoke, Kenya, 1980
HLA-B*46:01 [8] = experiment: as above; conditions: source organism: Marburg virus - Musoke, Kenya, 1980
HLA-B*08:02 = experiment: as above; conditions: source organism: Ravn virus - Ravn, Kenya, 1987
HLA-A*11:01 [9] = experiment: as above; conditions: source organism: Marburg virus - Musoke, Kenya, 1980
HLA-B*40:01 = experiment: as above; conditions: source organism: Marburg virus - Musoke, Kenya, 1980
HLA-A*26:02 = experiment: IEDB peptide-MHC binding, purified MHC/competitive/fluorescence; filed as Kd, often an IC50 or EC50 that approximates it; ≥ and ≤ were set here for values at or beyond the usual limits of such assays; conditions: source organism: Orthomarburgvirus marburgense
HLA-B*35:01 = experiment: as above; conditions: source organism: Orthomarburgvirus marburgense
HLA-A*69:01 [10] = experiment: as above; conditions: source organism: Orthomarburgvirus marburgense
HLA-A*02:01 [11] = experiment: as above; conditions: source organism: Orthomarburgvirus marburgense
HLA-A*26:03 [12] = experiment: as above; conditions: source organism: Orthomarburgvirus marburgense
HLA-A*68:02 [13] = experiment: as above; conditions: source organism: Orthomarburgvirus marburgense
HLA-C*12:03 = experiment: IEDB peptide-MHC binding, purified MHC/direct/fluorescence; filed as Kd, often an IC50 or EC50 that approximates it; ≥ and ≤ were set here for values at or beyond the usual limits of such assays; conditions: source organism: Giardia lamblia ATCC 50803
HLA-A*24:03 = experiment: as above; conditions: source organism: Giardia lamblia ATCC 50803
HLA-C*06:02 = experiment: IEDB peptide-MHC binding, purified MHC/competitive/fluorescence; filed as Kd, often an IC50 or EC50 that approximates it; ≥ and ≤ were set here for values at or beyond the usual limits of such assays; conditions: source organism: Giardia lamblia ATCC 50803
HLA-A*32:07 = experiment: as above; conditions: source organism: Giardia lamblia ATCC 50803
HLA-A*32:15 = experiment: as above; conditions: source organism: Giardia lamblia ATCC 50803
HLA-B*46:01 [14] = experiment: as above; conditions: source organism: Giardia lamblia ATCC 50803
HLA-B*15:42 = experiment: as above; conditions: source organism: Giardia lamblia ATCC 50803
HLA-C*14:02 = experiment: as above; conditions: source organism: Giardia lamblia ATCC 50803
HLA-B*45:06 = experiment: as above; conditions: source organism: Giardia lamblia ATCC 50803
HLA-A*68:23 = experiment: as above; conditions: source organism: Giardia lamblia ATCC 50803
HLA-B*83:01 = experiment: as above; conditions: source organism: Giardia lamblia ATCC 50803
HLA-C*04:01 = experiment: as above; conditions: source organism: Giardia lamblia ATCC 50803
[15] = source organism: Lyssavirus rabies
[16] = source organism: Marburg virus - Musoke, Kenya, 1980
[17] = source organism: Orthomarburgvirus marburgense

Sequence: RQMKSGGRF
- Kd (HLA-B*08:01): ≥ 20000 nM
- Kd (HLA-B*58:01; [15]): ≥ 20000 nM
- Kd (HLA-B*48:01; [15]): 1620 nM
- Kd (HLA-B*57:01; [15]): ≥ 20000 nM
- Kd (HLA-B*27:05; [15]): 275 nM
- Kd (HLA-B*18:01; [15]): ≥ 20000 nM
- Kd (HLA-A*69:01 [1]): ≥ 20000 nM
- Kd (HLA-A*02:01 [2]): ≥ 20000 nM
- Kd (HLA-B*07:02; [15]): ≥ 20000 nM
- Kd (HLA-A*26:03 [3]): ≥ 20000 nM
- Kd (HLA-A*03:01; [15]): ≥ 20000 nM
- Kd (HLA-B*73:01): ≥ 20000 nM
- Kd (HLA-A*01:01; [15]): ≥ 20000 nM
- Kd (HLA-A*68:02 [4]): ≥ 20000 nM
- Kd (HLA-B*15:01; [15]): 119 nM
- Kd (HLA-A*31:01 [5]): ≥ 20000 nM
- Kd (HLA-B*15:17; [15]): 631 nM
- Kd (HLA-B*15:09): ≥ 20000 nM
- Kd (HLA-A*11:01 [6]): ≥ 20000 nM
- Kd (HLA-A*02:06; [15]): 476 nM
- Kd (HLA-A*30:01): ≥ 20000 nM

Sequence: TVLEFILQK
- Kd (HLA-A*31:01 [7]): 119 nM
- Kd (HLA-B*58:01; [16]): ≥ 20000 nM
- Kd (HLA-B*46:01 [8]): ≥ 20000 nM
- Kd (HLA-B*48:01; [16]): ≥ 20000 nM
- Kd (HLA-B*57:01; [16]): ≥ 20000 nM
- Kd (HLA-B*27:05; [16]): ≥ 20000 nM
- Kd (HLA-B*18:01; [16]): ≥ 20000 nM
- Kd (HLA-B*08:02): ≥ 20000 nM
- Kd (HLA-A*11:01 [9]): 2.3 nM
- Kd (HLA-B*07:02; [16]): ≥ 20000 nM
- Kd (HLA-B*40:01): ≥ 20000 nM
- Kd (HLA-A*03:01; [16]): 141 nM
- Kd (HLA-A*01:01; [16]): ≥ 20000 nM
- Kd (HLA-B*15:01; [16]): ≥ 20000 nM
- Kd (HLA-A*26:02): ≥ 20000 nM
- Kd (HLA-B*35:01): ≥ 20000 nM
- Kd (HLA-B*15:17; [17]): ≥ 20000 nM
- Kd (HLA-A*69:01 [10]): 827 nM
- Kd (HLA-A*02:01 [11]): 1170 nM
- Kd (HLA-A*26:03 [12]): ≥ 20000 nM
- Kd (HLA-A*68:02 [13]): 3880 nM
- Kd (HLA-A*02:06; [17]): 776 nM

Sequence: YTFFFTQYF
- Kd (HLA-C*12:03): 44 nM
- Kd (HLA-A*24:03): 28.5 nM
- Kd (HLA-C*06:02): 1390 nM
- Kd (HLA-A*32:07): 34.5 nM
- Kd (HLA-A*32:15): 91.1 nM
- Kd (HLA-B*46:01 [14]): 342 nM
- Kd (HLA-B*15:42): ≥ 5000 nM
- Kd (HLA-C*14:02): 79.4 nM
- Kd (HLA-B*45:06): ≥ 5000 nM
- Kd (HLA-A*68:23): ≤ 0.1 nM
- Kd (HLA-B*83:01): ≥ 5000 nM
- Kd (HLA-C*04:01): ≥ 5000 nM

— the Immune Epitope Database (IEDB)
